From patent US20240043568A1 (KEYMED BIOSCIENCES, published 2024)

T1: human CD3εγ-Fc heterodimer (human)
T1 construct: also called human CD3 εγ protein; recombinant CD3 εγ protein
T1 chain 1: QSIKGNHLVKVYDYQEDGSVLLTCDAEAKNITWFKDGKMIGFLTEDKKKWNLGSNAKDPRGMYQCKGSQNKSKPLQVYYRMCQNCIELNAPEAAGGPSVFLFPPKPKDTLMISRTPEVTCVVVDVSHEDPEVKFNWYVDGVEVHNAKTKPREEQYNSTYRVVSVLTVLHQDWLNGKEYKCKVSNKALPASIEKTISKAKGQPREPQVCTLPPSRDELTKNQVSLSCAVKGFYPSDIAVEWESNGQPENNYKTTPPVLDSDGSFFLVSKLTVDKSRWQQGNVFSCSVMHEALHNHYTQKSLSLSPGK
T1 chain 2: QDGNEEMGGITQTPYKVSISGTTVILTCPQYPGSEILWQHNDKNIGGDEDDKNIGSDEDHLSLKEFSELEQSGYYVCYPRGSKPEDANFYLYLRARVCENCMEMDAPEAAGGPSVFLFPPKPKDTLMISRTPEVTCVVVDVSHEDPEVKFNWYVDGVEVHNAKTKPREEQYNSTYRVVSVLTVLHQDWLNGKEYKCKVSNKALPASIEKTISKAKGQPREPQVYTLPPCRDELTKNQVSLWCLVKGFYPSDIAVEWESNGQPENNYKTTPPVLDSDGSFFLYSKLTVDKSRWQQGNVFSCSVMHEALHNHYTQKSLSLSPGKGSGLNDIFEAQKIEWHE


Tests used:
[1] = molecular target: T2, recombinant human GPC3 protein (human, UniProt P51654 25-563); experiment: BLI (Octet), antibody on Protein A probe
T2 construct: also called human GPC3 full-length protein; recombinant GPC3 protein
Method: Using BLI technology (Octet), the antibody to be tested was captured on the Protein A probe. The binding capacity with human GPC3 protein (10 μg/ml as the initial concentration, 2-fold gradient, a total of 5 concentration points) was detected. The affinity constant KD was obtained according to the association and dissociation rates. The 49G8 humanized antibody binds to the recombinant GPC3 protein with high affinity. The affinity data is seen in Table 6.

human GPC3 on cells = molecular target: T3, human GPC3 on cells (human, UniProt P51654 25-563); experiment: flow cytometry on human GPC3-CHO stably-transfected cells, MFI
T3 construct: whole, on cells; One molecule is used for both CHO-hGPC3 transfectants and GPC3+ HepG2 cells; The assay field names the cell; also called CHO-hGPC3 (clone 2B10); CHO-human GPC3

[2] = molecular target: T2, recombinant human GPC3 protein; experiment: ELISA on coated recombinant human GPC3 protein, OD450 [panel Recombinant human GPC3 protein]
[3] = molecular target: T4, recombinant cynomolgus monkey GPC3 full-length protein (cynomolgus monkey, UniProt A0A2K5VK50 24-558); experiment: ELISA on coated recombinant cynomolgus monkey GPC3 protein, OD450 [panel Recombinant cynomolgus monkey GPC3 protein]
[4] = molecular target: T4, recombinant cynomolgus monkey GPC3 …; experiment: SPR (Biacore T200), antibody on Protein A chip, GPC3 as analyte
Method: (§1) Humanized antibodies with higher affinity were selected and compared for binding to human and cynomolgus monkey GPC3. The humanized antibody h49G8VHv6VKv3 was captured by the Protein A chip (GE healthcare). The recombinant proteins of human and cynomolgus monkey GPC3 diluted in gradient (5 μg/ml as the initial concentration, 2-fold gradient, 5 concentration points in total) were flowed through the chip at a flow rate of 30 μL/min, with a binding time of 150 seconds and dissociation time of 600 seconds. The kinetic constant was fitted using Biacore T200 evaluation software with a Langmuir 1:1 kinetics model. The humanized antibody h49G8VHv6VKv3 binds to human and cynomolgus monkey GPC3 with high affinity. […] The affinity data is seen in Table 7.

[5] = molecular target: T2, recombinant human GPC3 protein; experiment: as above
Method: as §1

[6] = molecular target: T1, human CD3εγ-Fc heterodimer; experiment: ELISA, coated human CD3εγ protein
Method: Human CD3 εγ protein was coated overnight at 4° C. After blocking with 2% skim milk, different dilutions of CD3 antibodies was added to each well and incubated for 1 hour. The secondary antibody HPR-labeled goat anti-human IgG Fc was added. After being developed by the TMB solution, the reaction was stopped with the concentrated sulfuric acid, and the absorbance was read at 450 nm (the results are shown in FIG. 12 and Table 8).

human CD3 on T cells = molecular target: T5, human CD3 on T cells (human, UniProt P07766 23-207); experiment: flow cytometry, Jurkat cells
T5 construct: whole, on cells; The target is the native CD3 complex on cells; The recombinant antigen used elsewhere is the εγ heterodimer; also called CD3 on Jurkat cells; CD3 on human peripheral blood CD4+ and CD8+ T cells
Method: Jurkat cells in the logarithmic growth phase were taken, blocked with 3% BSA for 30 min, and added to 96-well U-plate at 5×10⁴ cells per well. The supernatant was discarded after centrifugation. 50 μL of gradient diluted antibody was added (antibody concentration: from 30 ng/mL, 3-fold dilution for 5 gradients) per well, and incubated at 4° C. for 1 hour. […] After washing, 50 μL PBS was added per well to perform resuspending for FACS (iQue, intellicyt) assay (the results are seen in FIG. 13, and Table 10).

Row | Binder | Kd [1] [nM] | koff [1] [s⁻¹] | kon [1] [M⁻¹ s⁻¹] | EC50 (read off the curve) (human GPC3 on cells) [nM] | EC50 (read off the curve) [2] [nM] | EC50 (read off the curve) [3] [nM] | EC50 [6] [nM] | EC50 (human CD3 on T cells) [nM] | further results
1 | h49G8VHv6VKv2 (antibody, V domains shown, Humanized 49G8; The name is read as h49G8VHv6 plus h49G8VKv2) VH: QVQLVQSGAEVKKPGSSVKVSCKASGYTFADYEIHWVRQAPGQGLEWMGAIHPGSGGTAYAQKFQGRVTLTADESSTTAYMELSSLRSEDTAVYYCTRYYSFAYWGQGTLVTVSS VL: DVVMTQSPLSLPVTPGEPASISCRSSQSIVHSNYNTYLEWYLQKPGQSPQLLIYKVSNRFSGVPDRFSGSGSGTDFTLKISRVEAEDVGVYFCLQVTHVPLTFGQGTKLEIK | 2 | 0.000187 | 93600 | ~2 | ~0.03 | ~0.03 |  |  | 
2 | h49G8VHv6VKv3 (antibody, V domains shown, Humanized 49G8) VH: QVQLVQSGAEVKKPGSSVKVSCKASGYTFADYEIHWVRQAPGQGLEWMGAIHPGSGGTAYAQKFQGRVTLTADESSTTAYMELSSLRSEDTAVYYCTRYYSFAYWGQGTLVTVSS VL: DVVMTQSPLSLPVTPGEPASISCRSSQSIVHSNGNTYLEWYLQKPGQSPQLLIYKVSNRFSGVPDRFSGSGSGTDFTLKISRVEAEDVGVYFCLQVTHVPLTFGQGTKLEIK | 1.42 | 0.000134 | 94800 | ~2 | ~0.03 | ~0.03 |  |  | Kd [4]: 2.1 nM; koff [4]: 0.00025 s⁻¹; kon [4]: 119000 M⁻¹ s⁻¹; Kd [5]: 1.39 nM; koff [5]: 0.000351 s⁻¹; kon [5]: 253000 M⁻¹ s⁻¹
3 | h49G8VHv6VKv6 (antibody, V domains shown, Humanized 49G8) VH: QVQLVQSGAEVKKPGSSVKVSCKASGYTFADYEIHWVRQAPGQGLEWMGAIHPGSGGTAYAQKFQGRVTLTADESSTTAYMELSSLRSEDTAVYYCTRYYSFAYWGQGTLVTVSS VL: DVVMTQSPLSLPVTPGEPASISCRSSQSIVHSNANTYLEWYLQKPGQSPQLLIYKVSNRFSGVPDRFSGSGSGTDFTLKISRVEAEDVGVYFCLQVTHVPLTFGQGTKLEIK | 2.38 | 0.00022 | 92400 | ~2 | ~0.03 | ~0.03 |  |  | 
4 | h49G8VHv6VKv4 (antibody, V domains shown, Humanized 49G8) VH: QVQLVQSGAEVKKPGSSVKVSCKASGYTFADYEIHWVRQAPGQGLEWMGAIHPGSGGTAYAQKFQGRVTLTADESSTTAYMELSSLRSEDTAVYYCTRYYSFAYWGQGTLVTVSS VL: DVVMTQSPLSLPVTPGEPASISCRSSQSIVHSNSNTYLEWYLQKPGQSPQLLIYKVSNRFSGVPDRFSGSGSGTDFTLKISRVEAEDVGVYFCLQVTHVPLTFGQGTKLEIK | 2.28 | 0.000205 | 89900 | ~2 | ~0.03 | ~0.03 |  |  | 
5 | h49G8VHv6VKv5 (antibody, V domains shown, Humanized 49G8) VH: QVQLVQSGAEVKKPGSSVKVSCKASGYTFADYEIHWVRQAPGQGLEWMGAIHPGSGGTAYAQKFQGRVTLTADESSTTAYMELSSLRSEDTAVYYCTRYYSFAYWGQGTLVTVSS VL: DVVMTQSPLSLPVTPGEPASISCRSSQSIVHSNTNTYLEWYLQKPGQSPQLLIYKVSNRFSGVPDRFSGSGSGTDFTLKISRVEAEDVGVYFCLQVTHVPLTFGQGTKLEIK | 2.15 | 0.000193 | 90000 | ~2 | ~0.03 | ~0.03 |  |  | 
6 | aCD3-hVH1/VL5 (antibody, V domains shown, Humanized CD3 antibody with human IgG4 CH1-CH3 and a lambda light chain constant region) VH: EVQLVESGGGLVQPGGSLRLSCAASGFTFNTYAMNWVRQAPGKGLEWVSRIRSKYNNYATYYADSVKDRFTISRDDSKNTLYLQMNSLRAEDTAVYYCVRHGNFGNSYVSWFAYWGQGTLVTVSS VL: QAVVTQEPSLTVSPGGTVTLTCRSSTGAVTTSNYANWVQEKPGQAPRGLIGGTNKRAPWTPARFSGSLLGGKAALTITGAQAEDEAEYYCVLWYSNLWVFGGGTKLTVL |  |  |  |  |  |  | 0.6 | 10 | 
7 | aCD3-hVH8/VL1 (antibody, V domains shown, Human IgG4, lambda) VH: EVQLVESGGGLVQPGGSLRLSCAASGFTFNTYAMNWVRKAPGKGLEWVGRIRSKYNNYATYYADSVKDRFTISRDDSKNSLYLQMNSLKTEDTAVYYCARHGNFGNSYVSWFAYWGQGTLVTVSS VL: QAVVTQEPSLTVSPGGTVTLTCRSSTGAVTTSNYANWVQQKPGQAPRGLIGGTNKRAPWTPARFSGSLLGGKAALTLSGAQPEDEAEYYCALWYSNLWVFGGGTKLTVL |  |  |  |  |  |  | 0.65 | 15 | 
8 | aCD3-hVH9/VL3 (antibody, V domains shown, Human IgG4, lambda) VH: EVQLVESGGGLVQPGGSLRLSCAASGFTFNTYAMNWVRKAPGKGLEWVGRIRSKYNNYATYYADSVKDRFTISRDDSKNSLYLQMNSLKTEDTAVYYCVRHGNFGNSYVSWFAYWGQGTLVTVSS VL: EAVVTQEPSLTVSPGGTVTLTCESSDGAVTTSNYANWVQEKPGQAPRGLIGGTNKEAPWTPARFSGSLLGGKAALTLSGAQPEDEAEYYCALWYSNLWVFGGGTKLTVL |  |  |  |  |  |  | 0.7 |  | 
9 | aCD3-hVH9/VL1 (antibody, V domains shown, Human IgG4, lambda) VH: EVQLVESGGGLVQPGGSLRLSCAASGFTFNTYAMNWVRKAPGKGLEWVGRIRSKYNNYATYYADSVKDRFTISRDDSKNSLYLQMNSLKTEDTAVYYCVRHGNFGNSYVSWFAYWGQGTLVTVSS VL: QAVVTQEPSLTVSPGGTVTLTCRSSTGAVTTSNYANWVQQKPGQAPRGLIGGTNKRAPWTPARFSGSLLGGKAALTLSGAQPEDEAEYYCALWYSNLWVFGGGTKLTVL |  |  |  |  |  |  | 0.49 | 7 | 
